Results from the supplement of paper PMC5998384.

Tests used:
HeLa Kyoto [1] = experiment: solubility in G1/S (NP-40 vs SDS abundance) (log2 ratio); higher = more soluble; settings: cell cycle stage: G1/S
HeLa Kyoto [2] = experiment: melting temperature (median over replicates), in situ; higher = more thermally stable
HeLa Kyoto [3] = experiment: solubility change mitosis vs G1/S (difference of NP-40 vs SDS log2 ratios) (log2 ratio difference); higher = more soluble in mitosis
HeLa Kyoto [4] = experiment: thermal stability score vs G1/S (z-score of summed log2 fold changes over temperatures); higher = more thermally stable than in G1/S
[5] = cell cycle stage: early G1 (4.5 h after nocodazole release)
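Wherever melting temperature (median over replicates), in situ is given: HeLa Kyoto cells synchronized by double thymidine or nocodazole block, proteins quantified by TMT10plex mass spectrometry, three independent biological replicates.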
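Wherever solubility change mitosis vs G1/S (difference of NP-40 vs SDS log2 ratios) is given: synchronized HeLa Kyoto cells (double thymidine block for G1/S, nocodazole release for mitosis), protein amounts in NP-40 versus SDS lysates quantified by mass spectrometry, three biological replicates.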
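Wherever solubility in G1/S (NP-40 vs SDS abundance) is given: HeLa Kyoto cells arrested at G1/S by double thymidine block, proteins quantified by TMT10plex mass spectrometry in mild NP-40 versus SDS extracts, three biological replicates.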
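Wherever thermal stability score vs G1/S (z-score of summed log2 fold changes over temperatures) is given: synchronized HeLa Kyoto cells, proteins quantified by TMT10plex mass spectrometry, three biological replicates, mitosis taken 0.5 h after nocodazole release, G1/S directly after double thymidine block.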

Sequence of MSI2 (chain, as listed by the source): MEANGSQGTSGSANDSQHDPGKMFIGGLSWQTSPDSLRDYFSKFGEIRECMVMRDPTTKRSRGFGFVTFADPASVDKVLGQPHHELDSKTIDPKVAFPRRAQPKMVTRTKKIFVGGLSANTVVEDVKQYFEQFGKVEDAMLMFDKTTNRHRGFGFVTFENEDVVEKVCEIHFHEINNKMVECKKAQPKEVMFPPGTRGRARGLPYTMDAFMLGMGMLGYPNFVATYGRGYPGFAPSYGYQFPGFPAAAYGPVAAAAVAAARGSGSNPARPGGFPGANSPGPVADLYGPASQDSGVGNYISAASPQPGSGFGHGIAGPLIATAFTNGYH

| Substance | solubility in G1/S (log2) (HeLa Kyoto [1]) | melting temperature (HeLa Kyoto [2]; cell cycle stage: G1/S) | melting temperature (HeLa Kyoto [2]; cell cycle stage: mitosis) | solubility change mitosis (log2) (HeLa Kyoto [3]) | thermal stability score (HeLa Kyoto [4]; [5]) | thermal stability score (HeLa Kyoto [4]; cell cycle stage: mitosis) |
| --- | --- | --- | --- | --- | --- | --- |
| MSGIKKQKTENQQKSTNVVYQAHHVSRNKRGQVVGTRGGFRGCTVWLTGLSGAGKTTISFALEEYLVSHAIPCYSLDGDNVRHGLNRNLGFSPGDREENIRRIAEVAKLFADAGLVCITSFISPFAKDRENARKIHESAGLPFFEIFVDAPLNICESRDVKGLYKRARAGEIKGFTGIDSDYEKPETPERVLKTNLSTVSDCVHQVVELLQEQNIVPYTIIKDIHELFVPENKLDHVRAEAETLPSLSITKLDLQWVQVLSEGWATPLKGFMREKEYLQVMHFDTLLDDGVINMSIPIVLPVSAEDKTRLEGCSKFVLAHGGRRVAILRDAEFYEHRKEERCSRVWGTTCTKHPHIKMVMESGDWLVGGDLQVLEKIRWNDGLDQYRLTPLELKQKCKEMNADAVFAFQLRNPVHNGHALLMQDTRRRLLERGYKHPVLLLHPLGGWTKDDDVPLDWRMKQHAAVLEEGVLDPKSTIVAIFPSPMLYAGPTEVQWHCRSRMIAGANFYIVGRDPAGMPHPETKKDLYEPTHGGKVLSMAPGLTSVEIIPFRVAAYNKAKKAMDFYDPARHNEFDFISGTRMRKLAREGENPPDGFMAPKAWKVLTDYYRSLEKN [PAPSS2] | -0.0222 | 52.2 °C | 53.1 °C | -0.108 | 2.13 | 3.19 |
| MSGPTWLPPKQPEPARAPQGRAIPRGTPGPPPAHGAALQPHPRVNFCPLPSEQCYQAPGGPEDRGPAWVGSHGVLQHTQGLPADRGGLRPGSLDAEIDLLSSTLAELNGGRGHASRRPDRQAYEPPPPPAYRTGSLKPNPASPLPASPYGGPTPASYTTASTPAGPAFPVQVKVAQPVRGCGPPRRGASQASGPLPGPHFPLPGRGEVWGPGYRSQREPGPGAKEEAAGVSGPAGRGRGGEHGPQVPLSQPPEDELDRLTKKLVHDMNHPPSGEYFGQCGGCGEDVVGDGAGVVALDRVFHVGCFVCSTCRAQLRGQHFYAVERRAYCEGCYVATLEKCATCSQPILDRILRAMGKAYHPGCFTCVVCHRGLDGIPFTVDATSQIHCIEDFHRKFAPRCSVCGGAIMPEPGQEETVRIVALDRSFHIGCYKCEECGLLLSSEGECQGCYPLDGHILCKACSAWRIQELSATVTTDC [TRIP6] | -0.106 | 52 °C | 52 °C | -0.132 | 0.24 | -0.443 |
| MSGQRVDVKVVMLGKEYVGKTSLVERYVHDRFLVGPYQNTIGAAFVAKVMSVGDRTVTLGIWDTAGSERYEAMSRIYYRGAKAAIVCYDLTDSSSFERAKFWVKELRSLEEGCQIYLCGTKSDLLEEDRRRRRVDFHDVQDYADNIKAQLFETSSKTGQSVDELFQKVAEDYVSVAAFQVMTEDKGVDLGQKPNPYFYSCCHH [RAB24] | -0.101 | 53.8 °C | 54.2 °C | -0.172 | -0.25 | -0.316 |
| MSGSMATAEASGSDGKGQEVETSVTYYRLEEVAKRNSLKELWLVIHGRVYDVTRFLNEHPGGEEVLLEQAGVDASESFEDVGHSSDAREMLKQYYIGDIHPSDLKPESGSKDPSKNDTCKSCWAYWILPIIGAVLLGFLYRYYTSESKSS [CYB5B] | -0.0447 | 57.2 °C | – | 0.0898 | 1.14 | -0.285 |
| MSHGHSHGGGGCRCAAEREEPPEQRGLAYGLYLRIDLERLQCLNESREGSGRGVFKPWEERTDRSKFVESDADEELLFNIPFTGNVKLKGIIIMGEDDDSHPSEMRLYKNIPQMSFDDTEREPDQTFSLNRDLTGELEYATKISRFSNVYHLSIHISKNFGADTTKVFYIGLRGEWTELRRHEVTICNYEASANPADHRVHQVTPQTHFIS [PITHD1] | 0.0556 | 56.2 °C | 59.5 °C | -0.108 | -1.84 | -2.51 |
| MSHLPMKLLRKKIEKRNLKLRQRNLKFQGASNLTLSETQNGDVSEETMGSRKVKKSKQKPMNVGLSETQNGGMSQEAVGNIKVTKSPQKSTVLTNGEAAMQSSNSESKKKKKKKRKMVNDAEPDTKKAKTENKGKSEEESAETTKETENNVEKPDNDEDESEVPSLPLGLTGAFEDTSFASLCNLVNENTLKAIKEMGFTNMTEIQHKSIRPLLEGRDLLAAAKTGSGKTLAFLIPAVELIVKLRFMPRNGTGVLILSPTRELAMQTFGVLKELMTHHVHTYGLIMGGSNRSAEAQKLGNGINIIVATPGRLLDHMQNTPGFMYKNLQCLVIDEADRILDVGFEEELKQIIKLLPTRRQTMLFSATQTRKVEDLARISLKKEPLYVGVDDDKANATVDGLEQGYVVCPSEKRFLLLFTFLKKNRKKKLMVFFSSCMSVKYHYELLNYIDLPVLAIHGKQKQNKRTTTFFQFCNADSGTLLCTDVAARGLDIPEVDWIVQYDPPDDPKEYIHRVGRTARGLNGRGHALLILRPEELGFLRYLKQSKVPLSEFDFSWSKISDIQSQLEKLIEKNYFLHKSAQEAYKSYIRAYDSHSLKQIFNVNNLNLPQVALSFGFKVPPFVDLNVNSNEGKQKKRGGGGGFGYQKTKKVEKSKIFKHISKKSSDSRQFSH [DDX18] | -2.49 | 51 °C | 52 °C | 1.1 | 1.68 | 1.02 |
| MSHVAVENALGLDQQFAGLDLNSSDNQSGGSTASKGRYIPPHLRNREATKGFYDKDSSGWSSSKDKDAYSSFGSRSDSRGKSSFFSDRGSGSRGRFDDRGRSDYDGIGSRGDRSGFGKFERGGNSRWCDKSDEDDWSKPLPPSERLEQELFSGGNTGINFEKYDDIPVEATGNNCPPHIESFSDVEMGEIIMGNIELTRYTRPTPVQKHAIPIIKEKRDLMACAQTGSGKTAAFLLPILSQIYSDGPGEALRAMKENGRYGRRKQYPISLVLAPTRELAVQIYEEARKFSYRSRVRPCVVYGGADIGQQIRDLERGCHLLVATPGRLVDMMERGKIGLDFCKYLVLDEADRMLDMGFEPQIRRIVEQDTMPPKGVRHTMMFSATFPKEIQMLARDFLDEYIFLAVGRVGSTSENITQKVVWVEESDKRSFLLDLLNATGKDSLTLVFVETKKGADSLEDFLYHEGYACTSIHGDRSQRDREEALHQFRSGKSPILVATAVAARGLDISNVKHVINFDLPSDIEEYVHRIGRTGRVGNLGLATSFFNERNINITKDLLDLLVEAKQEVPSWLENMAYEHHYKGSSRGRSKSSRFSGGFGARDYRQSSGASSSSFSSSRASSSRSGGGGHGSSRGFGGGGYGGFYNSDGYGGNYNSQGVDWWGN [DDX3X] | -0.457 | 47.4 °C | 47.4 °C | 0.197 | -0.877 | 2.82 |
| MSI2 | 0.473 | 51 °C | 50.8 °C | 0.0111 | -0.0604 | -1.64 |
| MSIFTPTNQIRLTNVAVVRMKRAGKRFEIACYKNKVVGWRSGVEKDLDEVLQTHSVFVNVSKGQVAKKEDLISAFGTDDQTEICKQILTKGEVQVSDKERHTQLEQMFRDIATIVADKCVNPETKRPYTVILIERAMKDIHYSVKTNKSTKQQALEVIKQLKEKMKIERAHMRLRFILPVNEGKKLKEKLKPLIKVIESEDYGQQLEIVCLIDPGCFREIDELIKKETKGKGSLEVLNLKDVEEGDEKFE [SBDS] | -0.0131 | 50.4 °C | 50.2 °C | -0.0695 | 1.75 | 2.97 |
| MSKPPPKPVKPGQVKVFRALYTFEPRTPDELYFEEGDIIYITDMSDTNWWKGTSKGRTGLIPSNYVAEQAESIDNPLHEAAKRGNLSWLRECLDNRVGVNGLDKAGSTALYWACHGGHKDIVEMLFTQPNIELNQQNKLGDTALHAAAWKGYADIVQLLLAKGARTDLRNIEKKLAFDMATNAACASLLKKKQGTDAVRTLSNAEDYLDDEDSD [OSTF1] | 0.545 | 49.3 °C | 50.7 °C | -0.158 | -0.239 | 0.339 |
| MSKSFQQSSLSRDSQGHGRDLSAAGIGLLAAATQSLSMPASLGRMNQGTARLASLMNLGMSSSLNQQGAHSALSSASTSSHNLQSIFNIGSRGPLPLSSQHRGDADQASNILASFGLSARDLDELSRYPEDKITPENLPQILLQLKRRRTEEGPTLSYGRDGRSATREPPYRVPRDDWEEKRHFRRDSFDDRGPSLNPVLDYDHGSRSQESGYYDRMDYEDDRLRDGERCRDDSFFGETSHNYHKFDSEYERMGRGPGPLQERSLFEKKRGAPPSSNIEDFHGLLPKGYPHLCSICDLPVHSNKEWSQHINGASHSRRCQLLLEIYPEWNPDNDTGHTMGDPFMLQQSTNPAPGILGPPPPSFHLGGPAVGPRGNLGAGNGNLQGPRHMQKGRVETSRVVHIMDFQRGKNLRYQLLQLVEPFGVISNHLILNKINEAFIEMATTEDAQAAVDYYTTTPALVFGKPVRVHLSQKYKRIKKPEGKPDQKFDQKQELGRVIHLSNLPHSGYSDSAVLKLAEPYGKIKNYILMRMKSQAFIEMETREDAMAMVDHCLKKALWFQGRCVKVDLSEKYKKLVLRIPNRGIDLLKKDKSRKRSYSPDGKESPSDKKSKTDGSQKTESSTEGKEQEEKSGEDGEKDTKDDQTEQEPNMLLESEDELLVDEEEAAALLESGSSVGDETDLANLGDVASDGKKEPSDKAVKKDGSASAAAKKKLKKVDKIEELDQENEAALENGIKNEENTEPGAESSENADDPNKDTSENADGQSDENKDDYTIPDEYRIGPYQPNVPVGIDYVIPKTGFYCKLCSLFYTNEEVAKNTHCSSLPHYQKLKKFLNKLAEERRQKKET [MATR3] | -0.173 | 45.7 °C | 48.2 °C | 0.223 | 9.67 | 19.4 |
| MSKSLKKLVEESREKNQPEVDMSDRGISNMLDVNGLFTLSHITQLVLSHNKLTMVPPNIAELKNLEVLNFFNNQIEELPTQISSLQKLKHLNLGMNRLNTLPRGFGSLPALEVLDLTYNNLSENSLPGNFFYLTTLRALYLSDNDFEILPPDIGKLTKLQILSLRDNDLISLPKEIGELTQLKELHIQGNRLTVLPPELGNLDLTGQKQVFKAENNPWVTPIADQFQLGVSHVFEYIRSETYKYLYGRHMQANPEPPKKNNDKSKKISRKPLAAKNR [RSU1] | 0.389 | 50.3 °C | 52.9 °C | 0.203 | -0.646 | -1.96 |
| MSKTNKSKSGSRSSRSRSASRSRSRSFSKSRSRSRSLSRSRKRRLSSRSRSRSYSPAHNRERNHPRVYQNRDFRGHNRGYRRPYYFRGRNRGFYPWGQYNRGGYGNYRSNWQNYRQAYSPRRGRSRSRSPKRRSPSPRSRSHSRNSDKSSSDRSRRSSSSRSSSNHSRVESSKRKSAKEKKSSSKDSRPSQAAGDNQGDEAKEQTFSGGTSQDTKASESSKPWPDATYGTGSASRASAVSELSPRERSPALKSPLQSVVVRRRSPRPSPVPKPSPPLSSTSQMGSTLPSGAGYQSGTHQGQFDHGSGSLSPSKKSPVGKSPPSTGSTYGSSQKEESAASGGAAYTKRYLEEQKTENGKDKEQKQTNTDKEKIKEKGSFSDTGLGDGKMKSDSFAPKTDSEKPFRGSQSPKRYKLRDDFEKKMADFHKEEMDDQDKDKAKGRKESEFDDEPKFMSKVIGANKNQEEEKSGKWEGLVYAPPGKEKQRKTEELEEESFPERSKKEDRGKRSEGGHRGFVPEKNFRVTAYKAVQEKSSSPPPRKTSESRDKLGAKGDFPTGKSSFSITREAQVNVRMDSFDEDLARPSGLLAQERKLCRDLVHSNKKEQEFRSIFQHIQSAQSQRSPSELFAQHIVTIVHHVKEHHFGSSGMTLHERFTKYLKRGTEQEAAKNKKSPEIHRRIDISPSTFRKHGLAHDEMKSPREPGYKAEGKYKDDPVDLRLDIERRKKHKERDLKRGKSRESVDSRDSSHSRERSAEKTEKTHKGSKKQKKHRRARDRSRSSSSSSQSSHSYKAEEYTEETEEREESTTGFDKSRLGTKDFVGPSERGGGRARGTFQFRARGRGWGRGNYSGNNNNNSNNDFQKRNREEEWDPEYTPKSKKYYLHDDREGEGSDKWVSRGRGRGAFPRGRGRFMFRKSSTSPKWAHDKFSGEEGEIEDDESGTENREEKDNIQPTTE [THRAP3] | -1.38 | 50.5 °C | 51.2 °C | 0.46 | -5.24 | -3.44 |
